T1: Qa-SNARE Vam3 in proteoliposomes (S. cerevisiae, UniProt Q12241 1-283)
T1 sequence: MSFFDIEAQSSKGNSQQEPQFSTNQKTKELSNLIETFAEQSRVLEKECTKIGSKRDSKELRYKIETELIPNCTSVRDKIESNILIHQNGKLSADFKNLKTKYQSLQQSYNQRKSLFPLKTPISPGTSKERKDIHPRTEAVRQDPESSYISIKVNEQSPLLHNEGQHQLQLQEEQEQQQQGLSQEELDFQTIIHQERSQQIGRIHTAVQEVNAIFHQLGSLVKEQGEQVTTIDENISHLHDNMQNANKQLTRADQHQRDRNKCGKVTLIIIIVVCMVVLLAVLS

B1: Sec17 (natural protein)
chain: MSDPVELLKRAEKKGVPSSGFMKLFSGSDSYKFEEAADLCVQAATIYRLRKELNLAGDSFLKAADYQKKAGNEDEAGNTYVEAYKCFKSGGNSVNAVDSLENAIQIFTHRGQFRRGANFKFELGEILENDLHDYAKAIDCYELAGEWYAQDQSVALSNKCFIKCADLKALDGQYIEASDIYSKLIKSSMGNRLSQWSLKDYFLKKGLCQLAATDAVAAARTLQEGQSEDPNFADSRESNFLKSLIDAVNEGDSEQLSEHCKEFDNFMRLDKWKITILNKIKESIQQQEDDLL
B2: Sec18 (enzyme)
chain: MFKIPGFGKAAANHTPPDMTNMDTRTRHLKVSNCPNNSYALANVAAVSPNDFPNNIYIIIDNLFVFTTRHSNDIPPGTIGFNGNQRTWGGWSLNQDVQAKAFDLFKYSGKQSYLGSIDIDISFRARGKAVSTVFDQDELAKQFVRCYESQIFSPTQYLIMEFQGHFFDLKIRNVQAIDLGDIEPTSAVATGIETKGILTKQTQINFFKGRDGLVNLKSSNSLRPRSNAVIRPDFKFEDLGVGGLDKEFTKIFRRAFASRIFPPSVIEKLGISHVKGLLLYGPPGTGKTLIARKIGTMLNAKEPKIVNGPEILSKYVGSSEENIRNLFKDAEAEYRAKGEESSLHIIIFDELDSVFKQRGSRGDGTGVGDNVVNQLLAKMDGVDQLNNILVIGMTNRKDLIDSALLRPGRFEVQVEIHLPDEKGRLQIFDIQTKKMRENNMMSDDVNLAELAALTKNFSGAEIEGLVKSASSFAINKTVNIGKGATKLNTKDIAKLKVTREDFLNALNDVTPAFGISEEDLKTCVEGGMMLYSERVNSILKNGARYVRQVRESDKSRLVSLLIHGPAGSGKTALAAEIALKSGFPFIRLISPNELSGMSESAKIAYIDNTFRDAYKSPLNILVIDSLETLVDWVPIGPRFSNNILQMLKVALKRKPPQDRRLLIMTTTSAYSVLQQMDILSCFDNEIAVPNMTNLDELNNVMIESNFLDDAGRVKVINELSRSCPNFNVGIKKTLTNIETARHDEDPVNELVELMTQSA
B3: R-SNARE Nyv1 (natural protein)
chain: MKRFNVSYVEVIKNGETISSCFQPFQKNENYGTITSANEQITPVIFHNLIMDMVLPKVVPIKGNKVTKMSMNLIDGFDCFYSTDDHDPKTVYVCFTLVDMPKILPIRILSGLQEYESNATNELLSSHVGQILDSFHEELVEYRNQTLNSSGNGQSSNGNGQNTISDIGDATEDQIKDVIQIMNDNIDKFLERQERVSLLVDKTSQLNSSSNKFRRKAVNIKEIMWWQKVKNITLLTFTIILFVSAAFMFFYLW
B4: 3Q-SNARE complex (QaQbQc) on proteoliposomes (complex)
chain 1: T1 sequence
chain 2: MSSLLISYESDFKTTLEQAKASLAEAPSQPLSQRNTTLKHVEQQQDELFDLLDQMDVEVNNSIGDASERATYKAKLREWKKTIQSDIKRPLQSLVDSGDRDRLFGDLNASNIDDDQRQQLLSNHAILQKSGDRLKDASRIANETEGIGSQIMMDLRSQRETLENARQTLFQADSYVDKSIKTLKTMTRRLVANKFISYAIIAVLILLILLVLFSKFK
chain 3: MAANSVGKMSEKLRIKVDDVKINPKYVLYGVSTPNKRLYKRYSEFWKLKTRLERDVGSTIPYDFPEKPGVLDRRWQRRYDDPEMIDERRIGLERFLNELYNDRFDSRWRDTKIAQDFLQLSKPNVSQEKSQQHLETADEVGWDEMIRDIKLDLDKESDGTPSVRGALRARTKLHKLRERLEQDVQKKSLPSTEVTRRAALLRSLLKECDDIGTANIAQDRGRLLGVATSDNSSTTEVQGRTNNDLQQGQMQMVRDQEQELVALHRIIQAQRGLALEMNEELQTQNELLTALEDDVDNTGRRLQIANKKARHFNNSA

Experiments:
[1] = biological target: four-SNARE bundle with GST-Qa (GST-Qa, R, Qb, Qc) in detergent (S. cerevisiae, UniProt Q12241;Q12255;Q04338;P32912); assay: pull-down
[2] = biological target: HOPS (homotypic fusion and vacuole protein sorting complex) (S. cerevisiae, UniProt P12868;Q03308;P27801;P20795;Q07468;P38959); assay: proteoliposome floatation
[3] = biological target: 4-SNARE complex (R, Qa, Qb, Qc) on proteoliposomes (S. cerevisiae, UniProt Q12255;Q12241;Q04338;P32912); assay: proteoliposome floatation
[4] = biological target: B4; assay: proteoliposome floatation
[5] = biological target: T1, Qa-SNARE Vam3 in proteoliposomes; assay: co-IP

| binding result [1] | binding result [2] | binding result [3] | binding result [4] | binding result [5] | Binder |
| --- | --- | --- | --- | --- | --- |
| binds |  |  |  |  | B1 |
| binds | binds | binds | binds |  | B2 |
|  | binds |  |  | binds | B3 |
|  | binds |  |  |  | B4 |
